Results as given in patent CN117396506A (NOVARTIS AG, dated 2024).
Values belong to the binder of their own block, whether it stands above or below them.

Key:
重组人IL-1β = target: T1, 重组人IL-1β (human, UniProt P01584 117-269); assay: solution equilibrium titration (SET), single-target binding assay, MSD ECL read-out; mean KD
T1 construct: In the LPS/IL-12 assays the IL-1β is the native cytokine made by the blood cells; also called huIL-1β; IL-1b

重组人IL-18 = target: T2, 重组人IL-18 (human, UniProt Q14116 37-193); assay: SET, single-target binding assay
T2 construct: In the LPS/IL-12 assays the IL-18 is the native cytokine made by the blood cells; also called huIL-18; human IL-18

- Kd (重组人IL-1β): 0.6 pM
B1: mAb2 (antibody, human IgG1, kappa, V domains shown)
VH: QVQLVESGGGVVQPGRSLRLSCAASGFTFSVYGMNWVRQAPGKGLEWVAIIWYDGDNQYYADSVKGRFTISRDNSKNTLYLQMNGLRAEDTAVYYCARDLRTGPFDYWGQGTLVTVSS
VL: EIVLTQSPDFQSVTPKEKVTITCRASQSIGSSLHWYQQKPDQSPKLLIKYASQSFSGVPSRFSGSGSGTDFTLTINSLEAEDAAAYYCHQSSSLPFTFGPGTKVDIKR
notes: Human anti-IL-1β antibody, bivalent mAb; also called IL-1β抗体mAb2

- binding result (重组人IL-18): binds
B2: mAb1 (antibody, human IgG1, lambda, L234A L235A, V domains shown)
VH: EVQLVQSGAEVKKPGSSVKVSCKASGGTFKSYAISWVRQAPGQGLEWMGNIIPMTGQTYYAQKFQGRVTITADESTSTAYMELSSLRSEDTAVYYCARAAYHPLVFDNWGQGTLVTVSS
VL: DIVLTQPPSVSGAPGQRVTISCSGSSSNIGNHYVNWYQQLPGTAPKLLIYRNNHRPSGVPDRFSGSKSGTSASLAITGLQSEDEADYYCQSWDYSGFSTVFGGGTKLTVLG
notes: Human anti-IL-18 antibody, bivalent mAb; also called IL-18抗体mAb1
